Values belong to the binder of their own block, whether it stands above or below them.
Tests used:
4H3619-AA = molecular target: T1, 4H3619-AA; assay: two-hybrid library CCmax; details: mean of both orientations;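 further: natural log of median RNA to DNA barcode read ratio; higher means stronger binding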
T1 chain: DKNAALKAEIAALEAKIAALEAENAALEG

4H324-AA = molecular target: T2, 4H324-AA; assay: two-hybrid library CCmax; details: mean of both orientations;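 further: natural log of median RNA to DNA barcode read ratio; higher means stronger binding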
T2 chain: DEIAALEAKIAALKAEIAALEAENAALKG

4H249-AA = molecular target: T3, 4H249-AA; assay: two-hybrid library CCmax; details: mean of both orientations;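 further: natural log of median RNA to DNA barcode read ratio; higher means stronger binding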
T3 chain: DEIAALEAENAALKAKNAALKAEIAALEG

4H2580-AA = molecular target: T4, 4H2580-AA; assay: two-hybrid library CCmax; details: mean of both orientations;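 further: natural log of median RNA to DNA barcode read ratio; higher means stronger binding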
T4 chain: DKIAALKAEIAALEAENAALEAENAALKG

4H2774-AA = molecular target: T5, 4H2774-AA; assay: two-hybrid library CCmax; details: mean of both orientations
T5 chain: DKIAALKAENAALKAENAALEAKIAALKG

4H3974-AA = molecular target: T6, 4H3974-AA; assay: two-hybrid library CCmax; details: mean of both orientations
T6 chain: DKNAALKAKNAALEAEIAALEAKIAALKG

4H380-AA = molecular target: T7, 4H380-AA; assay: two-hybrid library CCmax; details: mean of both orientations
T7 chain: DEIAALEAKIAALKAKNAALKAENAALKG

4H63-AA = molecular target: T8, 4H63-AA; assay: two-hybrid library CCmax; details: mean of both orientations
T8 chain: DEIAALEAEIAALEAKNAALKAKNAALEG

4H2604-AA = molecular target: T9, 4H2604-AA; assay: two-hybrid library CCmax; details: mean of both orientations
T9 chain: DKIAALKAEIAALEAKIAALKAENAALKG

4H341-AA = molecular target: T10, 4H341-AA; assay: two-hybrid library CCmax; details: mean of both orientations
T10 chain: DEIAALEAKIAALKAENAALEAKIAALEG

4H2621-AA = molecular target: T11, 4H2621-AA; assay: two-hybrid library CCmax; details: mean of both orientations
T11 chain: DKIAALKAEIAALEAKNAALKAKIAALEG

4H2947-AA = molecular target: T12, 4H2947-AA; assay: two-hybrid library CCmax; details: mean of both orientations
T12 chain: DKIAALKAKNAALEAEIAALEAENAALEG

4H2903-AA = molecular target: T13, 4H2903-AA; assay: two-hybrid library CCmax; details: mean of both orientations
T13 chain: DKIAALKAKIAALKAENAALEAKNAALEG

4H3915-AA = molecular target: T14, 4H3915-AA; assay: two-hybrid library CCmax; details: mean of both orientations
T14 chain: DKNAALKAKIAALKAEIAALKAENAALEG

4H1593-AA = molecular target: T15, 4H1593-AA; assay: two-hybrid library CCmax
T15 chain: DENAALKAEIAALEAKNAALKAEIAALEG

4H432-AA = molecular target: T16, 4H432-AA; assay: two-hybrid library CCmax; details: mean of both orientations
T16 chain: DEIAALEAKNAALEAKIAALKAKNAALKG

4H1878-AA = molecular target: T17, 4H1878-AA; assay: two-hybrid library CCmax; details: mean of both orientations
T17 chain: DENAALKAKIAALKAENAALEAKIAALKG

4H3094-AA = molecular target: T18, 4H3094-AA; assay: two-hybrid library CCmax; details: mean of both orientations
T18 chain: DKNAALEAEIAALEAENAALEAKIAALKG

4H446-AA = molecular target: T19, 4H446-AA; assay: two-hybrid library CCmax; details: mean of both orientations
T19 chain: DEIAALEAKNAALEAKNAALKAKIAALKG

4H235-AA = molecular target: T20, 4H235-AA; assay: two-hybrid library CCmax; details: mean of both orientations
T20 chain: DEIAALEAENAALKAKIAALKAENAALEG

4H3049-AA = molecular target: T21, 4H3049-AA; assay: two-hybrid library CCmax; details: mean of both orientations
T21 chain: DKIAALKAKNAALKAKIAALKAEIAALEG

4H2961-AA = molecular target: T22, 4H2961-AA; assay: two-hybrid library CCmax; details: mean of both orientations
T22 chain: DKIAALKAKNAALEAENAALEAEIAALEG

4H3777-AA = molecular target: T23, 4H3777-AA; assay: two-hybrid library CCmax; details: mean of both orientations
T23 chain: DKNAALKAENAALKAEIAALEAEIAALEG

4H3449-AA = molecular target: T24, 4H3449-AA; assay: two-hybrid library CCmax; details: mean of both orientations
T24 chain: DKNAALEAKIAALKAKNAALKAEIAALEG

4H3629-AA = molecular target: T25, 4H3629-AA; assay: two-hybrid library CCmax; details: mean of both orientations
T25 chain: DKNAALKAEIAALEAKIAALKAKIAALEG

4H2760-AA = molecular target: T26, 4H2760-AA; assay: two-hybrid library CCmax; details: mean of both orientations
T26 chain: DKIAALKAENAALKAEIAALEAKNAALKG

4H496-bA = molecular target: T27, 4H496-bA; assay: two-hybrid library CCNG1
T27 chain: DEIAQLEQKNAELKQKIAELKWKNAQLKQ

4H3632-bA = molecular target: T28, 4H3632-bA; assay: two-hybrid library CCNG1
T28 chain: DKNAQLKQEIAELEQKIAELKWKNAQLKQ

4H855-bH = molecular target: T29, 4H855-bH; assay: two-hybrid library CCNG1
T29 chain: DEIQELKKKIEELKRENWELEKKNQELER

4H780-bH = molecular target: T30, 4H780-bH; assay: two-hybrid library CCNG1
T30 chain: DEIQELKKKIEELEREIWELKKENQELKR

4H4073-bH = molecular target: T31, 4H4073-bH; assay: two-hybrid library CCNG1
T31 chain: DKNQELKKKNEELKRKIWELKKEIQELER

4H754-bH = molecular target: T32, 4H754-bH; assay: two-hybrid library CCNG1
T32 chain: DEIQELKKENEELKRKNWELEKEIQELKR

4H2702-bH = molecular target: T33, 4H2702-bH; assay: two-hybrid library CCNG1
T33 chain: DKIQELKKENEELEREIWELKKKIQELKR

4H3010-bH = molecular target: T34, 4H3010-bH; assay: two-hybrid library CCNG1
T34 chain: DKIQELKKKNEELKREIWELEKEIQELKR

4H346-bH = molecular target: T35, 4H346-bH; assay: two-hybrid library CCNG1
T35 chain: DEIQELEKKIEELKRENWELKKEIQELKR

4H918-bH = molecular target: T36, 4H918-bH; assay: two-hybrid library CCNG1
T36 chain: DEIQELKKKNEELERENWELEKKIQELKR

4H2673-bH = molecular target: T37, 4H2673-bH; assay: two-hybrid library CCNG1
T37 chain: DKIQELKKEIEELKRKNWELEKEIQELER

4H575-bH = molecular target: T38, 4H575-bH; assay: two-hybrid library CCNG1
T38 chain: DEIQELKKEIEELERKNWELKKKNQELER

4H3926-bH = molecular target: T39, 4H3926-bH; assay: two-hybrid library CCNG1
T39 chain: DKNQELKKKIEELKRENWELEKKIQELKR

4H683-bH = molecular target: T40, 4H683-bH; assay: two-hybrid library CCNG1
T40 chain: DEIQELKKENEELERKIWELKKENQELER

4H3354-bH = molecular target: T41, 4H3354-bH; assay: two-hybrid library CCNG1
T41 chain: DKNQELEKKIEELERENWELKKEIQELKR

4H3112-bH = molecular target: T42, 4H3112-bH; assay: two-hybrid library CCNG1
T42 chain: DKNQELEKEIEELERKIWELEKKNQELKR

4H370-bN = molecular target: T43, 4H370-bN; assay: two-hybrid library CCNG1
T43 chain: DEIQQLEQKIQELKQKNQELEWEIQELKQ

4H2586-bH = molecular target: T44, 4H2586-bH; assay: two-hybrid library CCNG1
T44 chain: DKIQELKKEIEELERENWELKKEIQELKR

4H457-bH = molecular target: T45, 4H457-bH; assay: two-hybrid library CCNG1
T45 chain: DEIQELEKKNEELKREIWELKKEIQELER

4H953-bH = molecular target: T46, 4H953-bH; assay: two-hybrid library CCNG1
T46 chain: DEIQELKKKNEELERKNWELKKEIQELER

4H3427-bH = molecular target: T47, 4H3427-bH; assay: two-hybrid library CCNG1
T47 chain: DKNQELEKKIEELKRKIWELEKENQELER

4H797-bH = molecular target: T48, 4H797-bH; assay: two-hybrid library CCNG1
T48 chain: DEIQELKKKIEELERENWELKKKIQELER

4H968-bH = molecular target: T49, 4H968-bH; assay: two-hybrid library CCNG1
T49 chain: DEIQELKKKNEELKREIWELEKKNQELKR

4H2627-bH = molecular target: T50, 4H2627-bH; assay: two-hybrid library CCNG1
T50 chain: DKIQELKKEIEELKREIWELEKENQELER

P3bH1 = molecular target: T51, P3bH1; assay: two-hybrid library CCNG1
T51 chain: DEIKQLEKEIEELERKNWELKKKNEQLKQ

P7bH1 = molecular target: T52, P7bH1; assay: two-hybrid library CCNG1
T52 chain: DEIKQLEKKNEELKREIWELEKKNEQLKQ

P8bH1 = molecular target: T53, P8bH1; assay: two-hybrid library CCNG1
T53 chain: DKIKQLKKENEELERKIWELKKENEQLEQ

P9bH1 = molecular target: T54, P9bH1; assay: two-hybrid library CCNG1
T54 chain: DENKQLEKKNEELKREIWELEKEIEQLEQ

P4bH1 = molecular target: T55, P4bH1; assay: two-hybrid library CCNG1
T55 chain: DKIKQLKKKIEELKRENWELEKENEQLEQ

P5bH1 = molecular target: T56, P5bH1; assay: two-hybrid library CCNG1
T56 chain: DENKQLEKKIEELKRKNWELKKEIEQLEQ

P6bH1 = molecular target: T57, P6bH1; assay: two-hybrid library CCNG1
T57 chain: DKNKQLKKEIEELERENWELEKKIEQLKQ

O3 = molecular target: T58, O3; assay: two-hybrid library CCNG1
T58 chain: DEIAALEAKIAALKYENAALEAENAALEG

4H342-bA = molecular target: T59, 4H342-bA; assay: two-hybrid library CCNG1
T59 chain: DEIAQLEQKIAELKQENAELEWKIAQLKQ

4H48-bA = molecular target: T60, 4H48-bA; assay: two-hybrid library CCNG1
T60 chain: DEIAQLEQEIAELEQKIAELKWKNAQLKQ

4H491-bA = molecular target: T61, 4H491-bA; assay: two-hybrid library CCNG1
T61 chain: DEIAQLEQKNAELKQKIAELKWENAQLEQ

4H918-bN = molecular target: T62, 4H918-bN; assay: two-hybrid library CCNG1
T62 chain: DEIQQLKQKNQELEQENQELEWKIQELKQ

Binder: DKIQELKKEIEELERENWELKKEIQELKR [4H2586-bH]
interaction score (4H855-bH): 0.679
interaction score (4H780-bH): -1.12
interaction score (4H4073-bH): 0.357
interaction score (4H754-bH): -0.599
interaction score (4H2702-bH): 0.0111
interaction score (4H3010-bH): 0.779
interaction score (4H346-bH): 0.563
interaction score (4H918-bH): -0.131
interaction score (4H2673-bH): 1.76
interaction score (4H575-bH): 0.499
interaction score (4H3926-bH): 1.73
interaction score (4H683-bH): 0.126
interaction score (4H3354-bH): 0.825
interaction score (4H3112-bH): -1.96
interaction score (4H370-bN): 0.548
interaction score (4H2586-bH): 1.34
interaction score (4H457-bH): -0.749
interaction score (4H953-bH): 0.313
interaction score (4H3427-bH): 0.762
interaction score (4H797-bH): 0.65
interaction score (4H968-bH): -0.864
interaction score (4H2627-bH): 0.688

Binder: DEIKQLEKEIEELERKNWELKKKNEQLKQ [P3bH1]
interaction score (P3bH1): -0.241
interaction score (P7bH1): -0.271
interaction score (P8bH1): 0.173
interaction score (P9bH1): -0.408
interaction score (P4bH1): 1.13
interaction score (P5bH1): 1.1
interaction score (P6bH1): 0.419

Binder: DEIAQLEQKIAELKQENAELEWKIAQLKQ [4H342-bA]
interaction score (4H496-bA): 2.13
interaction score (O3): -1.6
interaction score (4H342-bA): 1.64
interaction score (4H48-bA): 0.0458
interaction score (4H491-bA): 1.5
interaction score (4H918-bN): -0.0267
interaction score (4H3632-bA): 0.725

The next lines start with the values.

interaction score (4H3619-AA): -1.38
interaction score (4H324-AA): -1.58
interaction score (4H249-AA): -1.77
interaction score (4H2580-AA): -0.97
interaction score (4H2774-AA): -0.0172
interaction score (4H3974-AA): -1.15
interaction score (4H380-AA): -1.5
interaction score (4H63-AA): -1.97
interaction score (4H2604-AA): 0.383
interaction score (4H341-AA): 2.13
interaction score (4H2621-AA): -0.899
interaction score (4H2947-AA): -1.37
interaction score (4H2903-AA): -0.456
interaction score (4H3915-AA): -1.62
interaction score (4H1593-AA): -1.04
interaction score (4H432-AA): -0.391
interaction score (4H1878-AA): 2.3
interaction score (4H3094-AA): 1.88
interaction score (4H446-AA): -1.84
interaction score (4H235-AA): 0.603
interaction score (4H3049-AA): -0.661
interaction score (4H2961-AA): -1.89
interaction score (4H3777-AA): -1.54
interaction score (4H3449-AA): -1.62
interaction score (4H3629-AA): -0.594
interaction score (4H2760-AA): -0.517
Binder: DENAALKAEIAALEAKNAALKAEIAALEG [4H1593-AA]

interaction score (4H496-bA): 0.728
interaction score (4H3632-bA): 1.23
Binder: DKNAQLKQEIAELEQKIAELKWKNAQLKQ [4H3632-bA]
